# Target: vps29_human VPS29 (UniProt Q9UBQ0)
row,effect of a mutation on the interaction,Substance
1,with no effect,Vacuolar protein sorting-associated protein 35 (Homo sapiens) (from UniProt Q96QK1) D620N
2,with no effect,Vacuolar protein sorting-associated protein 35 (Homo sapiens) (from UniProt Q96QK1) R524W

# Target: hbaz_human HBZ (UniProt P02008)
row,effect of a mutation on the interaction,Substance
1,disrupting interaction strength,"Hemoglobin subunit beta (Homo sapiens), P68871 V127G"
2,disrupting interaction strength,"Hemoglobin subunit beta (Homo sapiens), P68871 D100Y"
3,disrupting interaction strength,"Hemoglobin subunit beta (Homo sapiens), P68871 E122V"
4,disrupting interaction strength,"Hemoglobin subunit beta (Homo sapiens), P68871 H118Y"
5,disrupting interaction strength,"Hemoglobin subunit beta (Homo sapiens), P68871 F123S"
6,disrupting interaction strength,"Hemoglobin subunit beta (Homo sapiens), P68871 P101A"
7,disrupting interaction strength,"Hemoglobin subunit beta (Homo sapiens), P68871 L115P"
8,with no effect,"Hemoglobin subunit beta (Homo sapiens), P68871 N103Y"
9,disrupting interaction strength,"Hemoglobin subunit beta (Homo sapiens), P68871 V114E"
10,disrupting interaction strength,"Hemoglobin subunit beta (Homo sapiens), P68871 F104L"
11,disrupting interaction strength,"Hemoglobin subunit beta (Homo sapiens), P68871 S10C"
12,disrupting interaction strength,"Hemoglobin subunit beta (Homo sapiens), P68871 E102Q"

# Reference: IntAct's records for PubMed 25502805
